Publication PMC10400941 (Proceedings of the National Academy of Sciences of the …, 2023)

Legend:
RpnAL = target: T1, RpnAL (E. coli, UniProt P31667 1-292); assay: SEC-MALS
T1 sequence (looked up): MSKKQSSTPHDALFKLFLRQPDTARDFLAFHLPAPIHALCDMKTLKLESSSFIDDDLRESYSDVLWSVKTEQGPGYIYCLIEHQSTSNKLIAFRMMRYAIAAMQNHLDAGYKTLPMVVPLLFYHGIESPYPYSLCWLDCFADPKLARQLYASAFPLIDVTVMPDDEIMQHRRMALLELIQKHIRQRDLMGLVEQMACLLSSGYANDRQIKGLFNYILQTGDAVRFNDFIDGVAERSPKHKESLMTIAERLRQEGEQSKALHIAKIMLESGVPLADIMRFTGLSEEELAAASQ

SEC-MALS = target: the molecule itself; assay: SEC-MALS

- stoichiometry N (RpnAL): 1 RpnAS per RpnAL (2:2)
B1: RpnAS (domain or fragment, E. coli, UniProt P31667 244-292, looked up)
chain: MTIAERLRQEGEQSKALHIAKIMLESGVPLADIMRFTGLSEEELAAASQ
- stoichiometry N (SEC-MALS): 2
